Reference: paper doi:10.1101/2024.05.31.596867

Biological target: de-glycosylated KEN SVMP PIII (PNGase F treated under native conditions) (Bitis arietans (puff adder, Kenya))
Assay: gelatin zymogram

stoichiometry N: 2
Substance: de-glycosylated KEN SVMP PIII (PNGase F treated under native conditions) (enzyme)
